Data reported in patent US10174358.
pKd: −log10 of the molar value.

Target: Cy5-EF-Tu E348C (AV) C137A,C255V,E348C (Escherichia coli) (UniProt P0CE48)
Conditions: native tRNA modifications; 3'-aminoacylated with Phe; Cy3 on acp3U47; FRET titration; GTP form, 100 uM GTP, 8 mM Mg, 25 C

Q: How did the pKd turn out when Phe-tRNAPhe(Cy3) was run?
A: The pKd was 7.96.
